The text below walks through data of PMC9019020, “Low complexity RGG-motif sequence is required for Processing body (P-body) disassembly” (Nature Communications, 2022).

In the assay the target is T1, His-Edc3-mCherry (S. cerevisiae, UniProt P39998 1-551).
T1 construct: Edc3, P-body protein of S. cerevisiae with Lsm, FDF and YjeF-N domains; full length; also called full-length Edc3; purified Edc3; source: E. coli BL21, purified (Ni-NTA agarose, batch; RNase A added during purification); not shown: His, N-terminal, kept; mCherry, C-terminal, kept
T1 sequence (looked up): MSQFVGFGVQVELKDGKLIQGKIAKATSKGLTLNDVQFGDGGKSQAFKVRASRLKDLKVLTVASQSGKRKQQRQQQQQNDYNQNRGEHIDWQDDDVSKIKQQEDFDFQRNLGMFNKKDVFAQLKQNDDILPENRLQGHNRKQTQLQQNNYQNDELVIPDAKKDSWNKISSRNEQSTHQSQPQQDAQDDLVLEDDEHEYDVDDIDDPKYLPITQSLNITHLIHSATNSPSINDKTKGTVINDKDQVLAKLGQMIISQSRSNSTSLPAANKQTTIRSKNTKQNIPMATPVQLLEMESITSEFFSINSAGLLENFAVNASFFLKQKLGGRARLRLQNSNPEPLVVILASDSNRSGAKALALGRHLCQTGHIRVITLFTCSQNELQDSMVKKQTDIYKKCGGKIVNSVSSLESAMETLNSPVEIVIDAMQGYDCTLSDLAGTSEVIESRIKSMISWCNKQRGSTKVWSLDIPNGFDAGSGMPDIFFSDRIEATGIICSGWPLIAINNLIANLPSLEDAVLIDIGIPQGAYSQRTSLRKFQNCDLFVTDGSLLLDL
Briefly: pull-down; RFP magnetic agarose beads (Chromotek) capture Edc3-mCherry; 100 pmol of each purified protein; 4 °C, 2 h; 50 mM HEPES pH 7, 100 mM NaCl, 1 mM DTT, 2 mM MnCl2, 2 mM MgCl2, 1% Triton-X100, 10% glycerol, 0.25 mg/mL RNase A; western blot. The following applies: both partners purified.

B1: His-Sbp1-FLAG (natural protein, S. cerevisiae, UniProt P10080 1-294, looked up)
chain: MSAEIEEATNAVNNLSINDSEQQPRAPTHKTVIDPEDTIFIGNVAHECTEDDLKQLFVEEFGDEVSVEIPIKEHTDGHIPASKHALVKFPTKIDFDNIKENYDTKVVKDREIHIKRARTPGQMQRGGFRGRGGFRGRGGFRGGFRGGYRGGFRGRGNFRGRGGARGGFNGQKREKIPLDQMERSKDTLYINNVPFKATKEEVAEFFGTDADSISLPMRKMRDQHTGRIFTSDSANRGMAFVTFSGENVDIEAKAEEFKGKVFGDRELTVDVAVIRPENDEEEIEQETGSEEKQE
notes: Sbp1, RGG-motif containing translation repressor of S. cerevisiae; wild type; also called wild-type Sbp1; purified Sbp1; source: E. coli BL21, purified (Ni-NTA agarose, batch; RNase A added during purification); not shown: His, N-terminal, kept; FLAG, C-terminal, kept
Consider B1, for which the binding result is given as “binds”.
